Measurements reported in patent US20110182926A1, “[…]” (priority 2008, published 2011).

Key:
HLA-A*0201 [1] = molecular target: T1, HLA-A*0201 (Homo sapiens, UniProt P04439, D140Y/D185E/D98H/E176V/E277Q/G131W/G231S/I119V/I121R/I166T/I218V/L300P/L318F/N151K/N90K/P208A/P217A/Q86G/Q94H/R138H/R169H/T345S); test: HLA-A*0201/peptide complex stability on T2 cells over time (FACS); assay type: binding; conditions: 50 μM peptide, 0-8 hours, FIG. 4
Description: To assess the HLA-A*0201/peptide complex stability, T2 cells (10^6/mL) were incubated overnight with 50 μM of each peptide in serum-free RPMI 1640 supplemented with 100 ng/mL human β2m at 37° C. Cells were then washed 4 times to remove free peptides, incubated for 1 hour with 10 ng/mL Brefeldin A (Sigma-Aldrich) to block cell surface expression of newly synthesized HLA-A*0201 molecules, washed, and incubated at 37° C. for 0, 2, 4, 6, or 8 hours. Subsequently, cells were stained with anti-HLA-A2.1 mAb BB7.2. For each time point, peptide-induced HLA-A*0201 expression was calculated as mean fluorescence value of peptide incubated T2 cells/mean fluorescence value T2 cells in the absence of the peptide. Dissociation complex 50 (DC50) was defined as the time required for the loss of 50% of the HLA-A*0201/peptide complexes stabilized at t=0.
Binding stability of the peptide-MHC complex was also evaluated over time. The CAP-1 peptide was used as positive control.

HLA-A*0201 [2] = molecular target: T1, HLA-A*0201; test: In vitro cellular binding assay of CEA peptides on TAP-deficient T2 cells (FACS); conditions: 50 μM peptide, 18 hours at 37° C., FIG. 3
Description: To determine the binding ability of EI Suite-selected wild type peptides and analogs, an in vitro cellular binding assay was performed using the TAP-deficient cell line T2. T2 cells are HLA-A*0201 positive, MHC class II negative and TAP deficient, meaning that they lack a functional transporter associated with antigen presentation, so that they accumulate empty unstable class I molecules.
T2 cells were incubated with 50 μM peptide in serum-free RPMI 1640 supplemented with 5 μg/mL human β2m (Fluka) for 18 hours at 37° C. HLA-A*0201 expression was then measured by flow cytometry using the anti-HLA-A2.1 monoclonal antibody (mAb) BB7.2 followed by incubation with fluorescein isothiocyanate (FITC)-conjugated F(ab′)2 goat antimouse Ig (Biosource). The results are expressed as fluorescence index (FI) defined as a ratio (median channel of fluorescence) between the sample and a control without any peptide. An increase over the control of at least […] (FI>2) was arbitrarily chosen as the cutoff point.

HHD mice = test: Immunogenicity of additional CEA peptides in HHD mice (Example 9, ICS for IFNγ); assay type: in vivo; conditions: for fold more immunogenic than the natural peptide: HHD mice, ICS IFNγ; for fold more immunogenic than the natural peptide / immunogenicity (immune response against the natural target epitope): FIG. 7; for immunogenicity (immune response against the natural target epitope): 6 HHD mice, 100 μg peptide s.c., two injections, ICS IFNγ three weeks later
HLA-A*0201 [3] = molecular target: T1, HLA-A*0201; test: iTopia Epitope Discovery System binding affinity; conditions: hTERT analogs; FIG. 8
Description: Candidate epitopes and analogs are analyzed for the ability to bind to HLA-A*0201in-vitro using iTopia™ Epitope Discovery System (http://www.immunomics.com). This assay provides a method to determine the binding affinity and stability of a test peptide to any of several Class I HLA molecules, using fluorescent-labeled antibody that specifically recognizes HLA only when peptide is bound in the MHC-I groove.
Candidate epitopes and analogs are analyzed for the ability to bind to HLA-A*0201 in-vitro using iTopia™ Epitope Discovery System (http://www.immunomics.com). This assay provides a method to determine the binding affinity and stability of a test peptide to any of several Class I HLA molecules, using fluorescent-labeled antibody that specifically recognizes HLA only when peptide is bound in the MHC-I groove.

[4] = molecular target: T2, HLA-A*0201 (iTopia Epitope Discovery System) (human); test: iTopia Epitope Discovery System binding assay
T2 construct: Commercial in vitro assay; also called Class I HLA molecule
Description: This assay provides a method to determine the binding affinity and stability of a test peptide to any of several Class I HLA molecules, using fluorescent-labeled antibody that specifically recognizes HLA only when peptide is bound in the MHC-I groove.

HLA-A*0201 on T2 cells [5] = molecular target: T3, HLA-A*0201 on T2 cells (human); test: assay not named there (T2 cell binding per paragraph 90)
T3 construct: Empty class I molecule on T2 cells; also called HLA-A2.1; A2.1
Description: T2 cells were incubated with 50 μM peptide in serum-free RPMI 1640 supplemented with 5 μg/mL human β2m (Fluka) for 18 hours at 37° C. […] The results are expressed as fluorescence index (FI) defined as a ratio (median channel of fluorescence) between the sample and a control without any peptide. An increase over the control of at least 65% (FI>2) was arbitrarily chosen as the cutoff point.

HLA-A*0201 on T2 cells [6] = molecular target: T3, HLA-A*0201 on T2 cells; test: T2 cells, 50 uM peptide, surface HLA-A2 by FACS with BB7.2

VLYGPDDPTV (Anchor-modified analog) [411V10]
stability of peptide-MHC complex compared to wild-type counterpart (HLA-A*0201 [1]): improved stability | binding to HLA-A*0201 compared to wild-type counterpart (HLA-A*0201 [2]): marked increase of binding

ALVGIMIGV [CEA687L2]
fold more immunogenic than the natural peptide (HHD mice): about 3.4 fold | mice responded to the treatment (HHD mice; groups of 6 HHD mice): 100%

540.V9: hTERT position 540 9-mer V9 analog of ILAKFLHWL, SEQ ID NO 15 (ILAKFLHWV)
binding affinity to HLA-A*0201 compared to the corresponding wild type peptide (HLA-A*0201 [3]): increase in binding affinity

688.L2: hTERT position 688 10-mer L2 analog of RAWRTFVLRV, SEQ ID NO 20 (RLWRTFVLRV)
binding affinity to HLA-A*0201 compared to the corresponding wild type peptide (HLA-A*0201 [3]): increase in binding affinity

RLTVTTITV (Anchor-modified analog) [CEA310L2]
immunogenicity (immune response against the natural target epitope) (HHD mice): extremely powerful in eliciting a cross reactive immune response | fold more immunogenic than the natural peptide (HHD mice): 123 fold

GLMIGVLVGV (Anchor-modified analog) [690L2]
binding to HLA-A*0201 compared to wild-type counterpart (HLA-A*0201 [2]): marked increase of binding

ATVGIMIGV [CEA687]
immunogenicity (immune response against the natural target epitope) (HHD mice): significantly immunogenic | mice responding to the vaccination (HHD mice; groups of 6 HHD mice): 4 out of 6

GLNRTTVTTV (Anchor-modified analog) [307V10]
binding to HLA-A*0201 compared to wild-type counterpart (HLA-A*0201 [2]): marked increase of binding

540.V10: hTERT position 540 10-mer V10 analog of ILAKFLHWLM, SEQ ID NO 17 (ILAKFLHWLV)
binding affinity to HLA-A*0201 compared to the corresponding wild type peptide (HLA-A*0201 [3]): increase in binding affinity

GLSAGATVGV (Anchor-modified analog) [682V10]
stability of peptide-MHC complex compared to wild-type counterpart (HLA-A*0201 [1]): improved stability | binding to HLA-A*0201 compared to wild-type counterpart (HLA-A*0201 [2]): marked increase of binding

IMIGVLVGV [CEA691]
immunogenicity (immune response against the natural target epitope) (HHD mice): immunogenic

B1: hTERT position 865, 9-mer, w.t. (RLVDDFLLV) (peptide)
peptide: RLVDDFLLV
notes: Fragment of hTERT (SwissProt O14746, printed); The range is worked out from the printed position and length
binding affinity (% of positive control) [4]: 30 % of the positive control

B2: hTERT 865.F1 analog (peptide)
peptide: FLVDDFLLV
notes: type F1
binding result [4]: binds

B3: hTERT position 540, 9-mer, w.t. (ILAKFLHWL) (peptide)
peptide: ILAKFLHWL
notes: as for B1
binding affinity (% of positive control) [4]: 30 % of the positive control

B4: hTERT 540.V9 analog (peptide)
peptide: ILAKFLHWV
notes: type V9
binding result [4]: binds

B5: hTERT position 540, 10-mer, w.t. (ILAKFLHWLM) (peptide)
peptide: ILAKFLHWLM
notes: Fragment of hTERT (SwissProt O14746, printed)
binding affinity (% of positive control) [4]: 30 % of the positive control

B6: CEA.691 (IMIGVLVGV) (peptide)
peptide: IMIGVLVGV
notes: Wild type CEA 9-mer
binding result (HLA-A*0201 on T2 cells [5]): binds

B7: hTERT position 986, 9-mer, w.t. (FLDLQVNSL) (peptide)
peptide: FLDLQVNSL
notes: as for B1
binding affinity (% of positive control) [4]: 30 % of the positive control

B8: CEA.682V10 (GLSAGATVGV) (peptide)
peptide: GLSAGATVGV
notes: Anchor-modified analog of a CEA peptide
binding result (HLA-A*0201 on T2 cells [6]): binds

B9: CEA.690L2 (GLMIGVLVGV) (peptide)
peptide: GLMIGVLVGV
notes: Anchor-modified analog of a CEA peptide; leucine at position 2
binding result (HLA-A*0201 on T2 cells [6]): binds

B10: hTERT.934, 9-mer, w.t. (LLDTRTLEV) (peptide)
peptide: LLDTRTLEV
notes: as for B1
binding affinity (% of positive control) [4]: 30 % of the positive control

B11: hTERT position 688, 10-mer, w.t. (RAWRTFVLRV) (peptide)
peptide: RAWRTFVLRV
notes: as for B1
binding affinity (% of positive control) [4]: 30 % of the positive control

B12: hTERT position 30, 9-mer, w.t. (RLGPQGWRL) (peptide)
peptide: RLGPQGWRL
notes: as for B1
binding affinity (% of positive control) [4]: 30 % of the positive control

B13: CEA.589V10 (VLYGPDTPIV) (peptide)
peptide: VLYGPDTPIV
notes: as for B8
binding result (HLA-A*0201 on T2 cells [6]): binds

B14: CEA.307V10 (GLNRTTVTTV) (peptide)
peptide: GLNRTTVTTV
notes: as for B8
binding result (HLA-A*0201 on T2 cells [6]): binds

B15: hTERT position 544, 10-mer, w.t. (FLHWLMSVYV) (peptide)
peptide: FLHWLMSVYV
notes: as for B1
binding affinity (% of positive control) [4]: 30 % of the positive control
